The nature of this data set: label from the status in PepcDB records.

As for “MTGNSFHVSGYGPDKAGWTRLFARDSMARRLDWPILLAAVALSLMGSLLVYSATRNRTELNQGDQYYFLTRHLLNTGIGLALMVATVWLGHRALRTAVPLLYGFSVFLILLVLTPLGSTINGAHSWIKLPGGFSLQPSEFVKITIILGMAMLLAARVDAGDRPHPDHRTVLQALGLATVPMLIVMLMPDLGSVMVMVIIVLGILLASGASNRWIFGLLGAGTAGALAVWQLGILDDYQIARFAAFANPALDPAGVGYNTNQARIAIGSGGLTGSGLFEGSQTTGRFVPEQQTDFVFTVAGEELGFLGAGLIIALLGVVLWRGCRIARSTPDLYGTVVAAGIVAWFAFQTFENVGMTLGIMPVTGLPLPFVSYGGSSMFAVWIAVGLLQSITVQRPMSA”, the protein production result is reported as “failed”. Turning to “MTGQTQGKAVIARERISFWGGFDPQTGRIVDPYSSLRGRDISDCVLILLSSKGSSGTSGMLSLATRAGHAPAAMIQVEMDPVTVMGCLVNNIPLLQASGFDPFEQIQDGDLVRIDGENGTITLTPGQALEHHHHHH”, the protein production entry is recorded as “failed”. Consider “MTGRIVHFEIPFDDGDRARAFYRDAFGWAIAEIPDMDYSMVTTGPVGESGMPDEPGYINGGMMQRGEVTTPVVTVDVESIESALERIESLGGKTVTGRTPVGNMGFAAYFTDSEGNVVGLWETAR”, for which the protein production entry was “not failed”. The entry for “MTGTYTELIEGSERLSGLTDVDEVIKDLSRLLRKLVKTRWIAVYFFDRERRDFAPARSTGLPASFLPVFREMPLAPDKIPLLKSMLRKRQHLMLTDPGSSDLLTPKLRKLLRNLCVLAVPMVVRTQVIGAVFMARTRDNPPFSDAETAIIRDLVSHAALVVSHMQLFDE” is “not failed”; for “MTGVSDIQEAVAQIKAAGPSKPRLARDPVNQPMINNWVEAIGDRNPIYVDDAAARAAGHPGIVAPPAMIQVWTMMGLGGVRPKDDPLGPIIKLFDDAGYIGVVATNCEQTYHRYLLPGEQVSISAELGDVVGPKQTALGEGWFINQHIVWQVGDEDVAEMNWRILKFKPAGSPSSVPDDLDPDAMMRPSSSRDTAFFWDGVKAHELRIQRLADGSLRHPPVPAVWQDKSVPINYVVSSGRGTVFSFVVHHAPKVPGRTVPFVIALVELEEGVRMLGELRGADPARVAIGMPVRATYIDFPDWSLYAWEPDE” it is “failed”. In the case of “MTHATSTETIHYVNEDGDQVFEDGGGKLDFTRTVTIDDVTNEVVEYGEWTPVTDDEFAAVTSPDKDGYTPDTSEVAAQKPDMTDGPDGTVKDVEVTVTYTANPAVATITYVDDDENGKLEHHHHHH” it was “failed”. The entry for “MTHKVAFSFADGKTLFFPVKANEILLDAALRNGIKIPLDCREGVCGTCQGRCESGQYSQDYVDEEALSPQDLEQRKMLTCQTRVQSDAAFYFDFDSSLCHSADPVQLQGSVIDVRQVSESTAILHLDLGGHQAPLDFLPGQYARLSIPGTGTSRAYSFANRPAADNQLQFLIRLLPDGVMSNYIRERCLVGDTLQLEAPLGAFYLRQISRPLILVAGGTGLSALLAMLEQIVEQGCQQPVHLYYGVRHSRDLCELERIQAHGERLADFRFTPVISDANPDWPGKRGYISEHFDSSELRDQDTDMYVCGPPPMVDSIRIWLQEQQLNRVQLYYERFTESNI” is “failed”; for “MTHVRIVMVNTTLPANIGSALRAMKTMGLSQLVLVAPKTYPHPDIDALAAGAQDLVEKIKIVDTLEQAIQDCHIVFGTSARSRTIPWPLLDARPAAELSMDAVITRQQEIAIVFGREDRGLTNEELALANYHLTIPVNTDYGVLNVAQAIQVICYEMRMATLAQVQNDQASSDSQKMQVTEKIEMDWDEPLVNHQQMEEFYPHLEKMLVDIEFLDPQNPRLLPLRLRRLFGRAQLDRMEYHLLRGIFSRVQALSHGKWKKTALDKEEQSDV” it is “failed”. Consider “MTIAPTTLLLFAATALAELVGCYLPYLWLRKGGSVWLLLPTALSLAVFVWLLSLHPEASGRVYAAYGGVYIASALLWLWWVDGVTPTRWDLLGAACCLLGMAVIMFSPRSA”, for which the protein production entry is “failed”. The entry for “MTIAVDFDGTIVEHRYPRIGEEIPFAVETLKLLQQEKHRLILWSVREGELLDEAIEWCRARGLEFYAANKDYPEEERDHQGFSRKLKADLFIDDRNVGGIPDWGIIYEMIKEKKTFADIYSQQREENTSQKKKRKWLPF” is “not failed”; for “MTIGRAKVYATLSKIFYHLFYDEAIPKDCREIIEKFGEIDFNLRSVLVRELRGSVLIKDMPQSLAEVYESVMKDFYERYGFQASELHADHIAVELAFMSKLVEREISLAQQMKEEELYKIRAAQHRFIKAHLQPLVKNLPSAPLLNFVRDFVREDAKYLYSSLVGEKNEGADNN” it is “not failed”. The entry for “MTIKALFWDIGGVLLTNGWDREQRADVAQRFGLDTDDFTERHRLAAPELELGRMTLAEYLEQVVFYQPRDFTPEDFRAVMEEQSQPRPEVLALARDLGQRYRMYSLNNEGRDLNEYRIRTFGLGEFLLAFFTSSALGVMKPNPAMYRLGLTLAQVRPEEAVMVDDRLQNVQAARAVGMHAVQCVDAAQLREELAALGVR” is “not failed”; for “MTIPLIIGGVLLAILILLILVFITKYRTVGPDEALIVTGNWLGGGKNVVTTDDGKKIKIIRGGGTFVVPIMQRAEPLSLLNYKLEVGTRDTYTKQGVPVTVNGVSIIKVGSTIEEVSTAAEQYLGKETEELKVEAKEVLEGHLRAILSSMTVEDAYSNREQFAQKVHEVASTDLKKMGLRIVSFTIKEIMDKNGYLDALGQPQIATVKRDATIANAEREKEARIEKARAEKEAKEAEYQRDAQIAEAEKHKELKVQSYKREQEQARADADLSYELQQAKAQQGVTEEQMRVKIIEREKQIELEEKEIARREKQYDAEVKKKADADRYAVEQSAEAEKVKQIKKADADQYKIEAEARARAEEVRVEGLAKAEIEKAQGQAKAEVQKAQGTAEADVIRLKGLAEAEAKQKIAEAFELYGQAAIMDMVLKMLPSYAKEVASPLSNIDKITVVDTGGGGKNSGAGKVAGYATDLMATMQETLKASSGIDLKELLEGFAGKGAVQQLSSDKPVVSVVEDKKKEVEKDKE” it is “failed”; for “MTIQDYMLETPVRMREIISNADSLFNEVKRTNLKKIIITGSGTSYHSGVQVQPYLQNLLDIDVVKMYPFMITEDTFKFDNENTLVVGVSQGGSSYSTYNAMKLAEDKGCKIASMAGCKNALIDEISDYILTVNCGEEKSGAKTKGYYCTKLNLMLLGLQIAREKGIISSEKYNEEINKILDAINRFEAVYKLSKQWIERNKEKLVNSKEIRIIGHSDIYGDTLEAALKLLETMRIPVTGYEFEEFIHGIYNAINSDSTIFILDTGKEPRVTKMIDVLSGWTENVFAIGRDVTENDKNLKIDITDNPYYQTFNFIVPIQLICGEIPTLRGVDPSVPKDTRFHMKLGSKKLNK” it is “not failed”.

For “MTIQLLNDRYQVIRTLGAGGFGETYLAEDTYMPSKRRCVVKQLRPIQNNPQIYQLVQERFQREAAILEELGGATEQIPALYAYFSADGQFYLVQEWVEGDTLTGRLQQQGLFTESAIQELLVNLLPVLEYVHSKHIVHRDIKPDNIILRHRDGKPVLIDFGAVRESMGTVVNSQGNPTSSIVIGTPGYMPSEQAAGRPVYSSDLYSLGLTAIYLLTGRQPQTLEIDSQTGEIMWRQYASQMNPILASVLDKAIAYHPRDRYATARAMLDNLQSISSPIPPTQPYFAPPPVVSAPPQPTVPVAPQANVTGNNQKGILFGSLIAGGLIGASVIIGLAFTRTPQPVAENNNTSPVNSITETPVIKATPEVTQPPVTAQPIVPSPQQQVNSSPFPSITSVPIDVNINNNNYLWLSQQAVTDADLDDKDGYTLDIMRNTVFARHGRRFDNPGLQDYFNNQPWYNPIYSPKEFPIKLLTRLEQRNVDYIAAYQKRYNLRHFK”, the protein production result is given as “failed”.

Regarding “MTISIDRPAPVSSWRTYRRLLAFAKPYRLLLVAALIAALIEAAGTTGFLALMKPITDETFIYKNAEVSRWLPVQIILLFVVRGVAGYITDMAMGKSARSIARDLRIKVMAKYLRLPGSRFDSEPVPSMLIRLGSDSDQVAQAAVDAVKVMIQQSLQVIGALALMLWHSWQVTLTILVLAPVLAWVMDKVARRYRRISHSIQESGAQLLQAADQTLSSHQEVKIYGAQQTEMERYGALANRNLRLAMKVESTRGISTATVQMIGAIGLSALLFVAGAQALAGRLTAGDFVVLMTSMLTIIPGLKQLTNVQNMVQRGLASAERLFSVLDSPDEPDQGTVPLTRAKGLIEFRDVTARYPGQVNPALADVSFVAQPGTVTAIVGRSGSGKSSLIKLIPRFYEAEAGQILLDGHPVQAYALADLRRQIALVGQQVMLFDGSIADNVAFGEMRNADAGKLERAILGANAMEFVAQLPEGLQSHVGTKGGRLSGGQRQRLAIARAMLKDAPVLILDEATAALDNESERLVQDALHKLMPDRTTLVIAHRLSTIEHADQVLVMDQGRIVERGTHHQLLAQGGLYSHLHGMQFRERQA”, the protein production entry was “failed”. In the case of “MTITSKLKKRRSLSTLITKIIILVLAPIILGIFVQSYYFSKQIIWQEVDRTKQQTSALILNIFESHFAAIQIHHDSNSKSDVILDFYSERNEEALNYFFLSIDQSDPSHTPEFRFLTDHQGIIWDDGNAHFYGINDSMLDGLTSKVTFSNNWYYVTSITSMGARHLLLRRVPVLEPKTGEVMGYSYNAVVLDNNFALMEKLKNEGNVDNVVLVANDIPVASSLAGDESYKIFDVLKRKETQKKLDQLLIIQTPIEVNAAITNLKLLTVQDNQSVVTLQIQHFLAMLASVIGMIMIALMTKEWIENRVVEELGSLMSYTRSAREEKGFERFGGSDIEEFDHIGSTLESTFEELEAQKRSFRDLFNFALSPIMVWSEAGVLIQINPAARKELVIENDIETMHPVFKGFKDKLVPHLRMAAQGATLTGVNVPIGDKVFRWNLSPIRVDGDISGIIVQGQDITTLIEAEKQSNLARREAEKSAQARADFLAKMSHEIRTPINGILGVAQLLKDSVEAEEQKNQIDVLRHSGEHLLAVLNDILDFSKIEQGKFNIQKHPFSFADTMRTLENIYRPICENKGVELVIENQLDGNVEIFTDQVRLNQILFNLVSNAVKFTPSGCVRLHAELEQFYGADNSVLVVEISDTGIGIESDKLDEMFEPFVQEEATTTREYGGSGLGLTIVKNLVDMLDGDVQVRSQKGQGTTFVVTLPVKDRERVLAPLDSSQRVKPAELFDESLKVLLVEDNHTNAFILKAFCTKYKMQVDWAKDGLEAMEFLKDHSYDLILMDNQLPHLGGIETTKEIRQNLKLGTPIYACTADTAQETSDAFMEAGANYVLLKPIKENALHEAFVDFKQRFLIERT” it was “failed”; in that of “MTKCGHSFCYKCIHQSLEDNNRCPKCNYVVDNIDHLYPNFLVNELILKQKQRFEEKRFKLDHSVSSTNGHRWQIFQDWLGTDQDNLDLANVNLMLELLVQKKKQLEAESHAAQLQILMEFLKVARRNKREEMSGLYSPVSEDSTVPQFEAPSPSHSSIIDSTEYSQPPGFSGSSQTKKQPWYNSTLASRRKRLTAHFEDLEQCYFSTRMSRISDDSRTASQLDEFQECLSKFTRYNSVRPLATLSYASDLYNGSSIVSSIEFDRDCDYFAIAGVTKKIKVYEYDTVIQDAVDIHYPENEMTCNSKISCISWSSYHKNLLASSDYEGTVILWDGFTGQRSKVYQEHEKRCWSVDFNLMDPKLLASGSDDAKVKLWSTNLDNSVASIEAKANVCCVKFSPSSRYHLAFGCADHCVHYYDLRNTKQPIMVFKGHRKAVSYAKFVSGEEIVSASTDSQLKLWNVGKPYCLRSFKGHINEKNFVGLASNGDYIACGSENNSLYLYYKGLSKTLLTFKFDTVKSVLDKDRKEDDTNEFVSAVCWRALPDGESNVLIAANSQGTIKVLELV”, “failed”; in that of “MTKFYKFLISIIILALVCLIFFLAKSNILNLDSLKNLILSSGYFAPLIYIIAFALVPLTFFPDSVLAILGGSIFGLGGGFLYTSIGALIGGSISFFISRILGQSFVEKFENDKLKNIQELLKDNGFLMILLLRLIPLFPFDLISYGAGLTKISYKDFALGTLIGTIPGILVFVNLGAQWITFNKTSIYLSVSLLILFIIVSVFLKKIYINKHLAKEN”, “failed”.

These data come from a protein production outcome set (Wang et al. 2014).
